Laboratory results taken from PMC2756145.
Changes are numbered by the printed parent chain. Read-outs that look alike come from different tables or passages of the source.

Legend:
Pot1-DBD = biological target: T1, Pot1-DBD (Schizosaccharomyces pombe, UniProt O13988 1-389); assay: filter binding
T1 sequence: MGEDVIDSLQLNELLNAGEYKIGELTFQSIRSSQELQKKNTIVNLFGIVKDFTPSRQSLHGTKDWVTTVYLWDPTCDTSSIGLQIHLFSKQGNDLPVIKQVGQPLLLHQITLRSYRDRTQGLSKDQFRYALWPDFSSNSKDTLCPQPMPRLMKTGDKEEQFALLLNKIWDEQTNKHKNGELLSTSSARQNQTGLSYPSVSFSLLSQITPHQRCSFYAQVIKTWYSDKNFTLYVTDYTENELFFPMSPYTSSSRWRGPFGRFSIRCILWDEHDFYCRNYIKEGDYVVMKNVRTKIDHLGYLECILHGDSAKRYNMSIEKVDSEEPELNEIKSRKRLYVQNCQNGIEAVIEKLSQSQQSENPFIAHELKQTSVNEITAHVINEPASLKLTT

Pot1-DBD_Q91A = biological target: T2, Pot1-DBD_Q91A (Schizosaccharomyces pombe, UniProt O13988 1-389, Q91A); assay: filter binding
T2 sequence: T1 sequence with Q91A

Pot1-DBD_V97A = biological target: T3, Pot1-DBD_V97A (Schizosaccharomyces pombe, UniProt O13988 1-389, V97A); assay: filter binding
T3 sequence: T1 sequence with V97A

Pot1pC [1] = biological target: T4, Pot1pC (Schizosaccharomyces pombe, UniProt O13988 178-389); assay: EMSA
T4 sequence: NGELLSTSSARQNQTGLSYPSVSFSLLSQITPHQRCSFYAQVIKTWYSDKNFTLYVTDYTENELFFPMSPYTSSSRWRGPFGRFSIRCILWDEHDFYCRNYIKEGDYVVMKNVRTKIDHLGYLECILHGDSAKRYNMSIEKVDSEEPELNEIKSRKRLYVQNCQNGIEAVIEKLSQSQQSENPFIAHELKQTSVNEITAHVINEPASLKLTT

Pot1pN_D64A = biological target: T5, Pot1pN_D64A (Schizosaccharomyces pombe, UniProt O13988 1-185, D64A); assay: filter binding
T5 sequence: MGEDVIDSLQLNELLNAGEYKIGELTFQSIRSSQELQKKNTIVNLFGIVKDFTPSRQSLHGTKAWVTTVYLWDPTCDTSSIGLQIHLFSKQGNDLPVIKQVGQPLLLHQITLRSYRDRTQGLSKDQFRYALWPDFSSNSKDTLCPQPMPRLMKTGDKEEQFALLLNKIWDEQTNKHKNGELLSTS

Pot1pN_T62A = biological target: T6, Pot1pN_T62A (Schizosaccharomyces pombe, UniProt O13988 1-185, T62A); assay: filter binding
T6 sequence: T5 sequence with T62A, A64D

Pot1pN_Y115A = biological target: T7, Pot1pN_Y115A (Schizosaccharomyces pombe, UniProt O13988 1-185, Y115A); assay: filter binding
T7 sequence: T5 sequence with A64D, Y115A

Pot1pN = biological target: T8, Pot1pN (Schizosaccharomyces pombe, UniProt O13988 1-185); assay: filter binding
T8 sequence: T5 sequence with A64D

Pot1pN_S123A = biological target: T9, Pot1pN_S123A (Schizosaccharomyces pombe, UniProt O13988 1-185, S123A); assay: filter binding
T9 sequence: T5 sequence with A64D, S123A

Pot1pC [2] = biological target: T4, Pot1pC; assay: EMSA; remark: listed apart in the source

## GGTTACGGTTACGGT (ssDNA) [15mer]
Pot1-DBD
  binding result: binds
Pot1-DBD_Q91A
  Kd: 0.04 ± 0.003 nM
Pot1-DBD_V97A
  Kd: 0.04 ± 0.004 nM

## GGTTAGGGT (ssDNA) [9mer_C6G]
Pot1pC [1]
  Kd: 300 ± 50 nM

## GGTTAC (ssDNA) [6mer]
Pot1pN_D64A
  Kd: 400 ± 30 nM
Pot1pN_T62A
  Kd: 500 ± 50 nM
Pot1pN_Y115A
  Kd: 300 ± 20 nM
Pot1pN
  Kd: 30 ± 20 nM
Pot1pN_S123A
  Kd: 100 ± 10 nM

## GGTTACGG (ssDNA) [8mer-3']
Pot1pC [1]
  Kd: 1900 ± 300 nM

## GGTTACGGTT (ssDNA) [10mer-3']
Pot1pC [1]
  Kd: 300 ± 40 nM

## GGTTACGGA (ssDNA) [9mer_T9A]
Pot1pC [1]
  Kd: 2000 ± 400 nM

## CGGTTAC (ssDNA) [7mer-5']
Pot1pC [2]
  Kd: 35000 ± 8000 nM

## GGTTACGGT (ssDNA) [9mer-3']
Pot1pC [1]
  Kd: 400 ± 70 nM

## GCTTACGGT (ssDNA) [9mer_G2C]
Pot1pC [1]
  Kd: 3000 ± 600 nM

## CCAATGCCCAATGC (ssDNA) [C-rich complementary sequence]
Pot1pC [1]
  binding result: no binding

## GGATACGGT (ssDNA) [9mer_T3A]
Pot1pC [1]
  Kd: 600 ± 100 nM

## GGTTACCGT (ssDNA) [9mer_G7C]
Pot1pC [1]
  Kd: 3000 ± 500 nM

## GGTAACGGT (ssDNA) [9mer_T4A]
Pot1pC [1]
  Kd: 700 ± 300 nM

## GGTTTCGGTTAC (ssDNA) [12mer_A5T]
Pot1-DBD_V97A
  Kd: 50 ± 4 nM

## GGTTACGCT (ssDNA) [9mer_G8C]
Pot1pC [1]
  Kd: 800 ± 200 nM

## ACGGTTAC (ssDNA) [8mer-5']
Pot1pC [2]
  Kd: 15000 ± 2000 nM

## CGTTACGGTTAC (ssDNA) [12mer_G1C]
Pot1-DBD_Q91A
  Kd: 50 ± 6 nM
Pot1-DBD_V97A
  Kd: 70 ± 7 nM

## GGTTACG (ssDNA) [7mer-3']
Pot1pC [2]
  Kd: 10500 ± 1900 nM

## GGTTAGGGTTAC (ssDNA) [12mer_C6G]
Pot1-DBD_V97A
  Kd: 100 ± 10 nM

## GGTTACGGTTACGGTTACGGTTAC (ssDNA) [24mer]
Pot1-DBD_Q91A
  Kd: 0.06 ± 0.003 nM
Pot1-DBD_V97A
  Kd: 0.06 ± 0.004 nM

## GGTTACGGTTA (ssDNA) [11mer-3']
Pot1pC [1]
  Kd: 600 ± 100 nM

## CGTTACGGT (ssDNA) [9mer_G1C]
Pot1pC [1]
  Kd: 1000 ± 100 nM
